Test results reported in article PMC12677907.

Target: BoABA2, purified protein (GST pull-down and enzyme assay) (cabbage (Brassica oleracea var. capitata))

BoABA2 catalytic activity in converting xanthoxin to abscisic aldehyde in vitro, co-incubated with BoCML37 in the presence of Ca2+, relative to BoABA2 alone: 3.88 fold
Substance: BoCML37, purified protein (GST pull-down and enzyme assay) (natural protein)
